Assay results reported in patent publication US20090111753A1, “Nogo-A Polypeptide Fragments, Variant Nogo Receptor-1 Polypeptides, and Uses Thereof” (Yale University, priority 2004, published 2009).

B1: mouse NgR3 expressed on COS-7 cells (receptor, UniProt Q8K0S5 25-424, looked up)
chain: CPRDCVCYPAPMTVSCQAHNFAAIPEGIPEDSERIFLQNNRITFLQQGHFSPAMVTLWIYSNNITFIAPNTFEGFVHLEELDLGDNRQLRTLAPETFQGLVKLHALYLYKCGLSALPAGIFGGLHSLQYLYLQDNHIEYLQDDIFVDLVNLSHLFLHGNKLWSLGQGIFRGLVNLDRLLLHENQLQWVHHKAFHDLHRLTTLFLFNNSLTELQGDCLAPLVALEFLRLNGNAWDCGCRARSLWEWLRRFRGSSSAVPCATPELRQGQDLKLLRVEDFRNCTGPVSPHQIKSHTLTTSDRAARKEHHPSHGASRDKGHPHGHPPGSRSGYKKAGKNCTSHRNRNQISKVSSGKELTELQDYAPDYQHKFSFDIMPTARPKRKGKCARRTPIRAPSGVQQAS
notes: whole, on cells; tagged (anti-Myc or anti-His detection); tag not specified
B2: AP-fused Amino-Nogo fragment B (a.a. 622-1018) (ligand)
chain: SAVPSAGASVIQPSSSPLEASSVNYESIKHEPENPPPYEEAMSVSLKKVSGIKEEIKEPENINAALQETEAPYISIACDLIKETKLSAEPAPDFSDYSEMAKVEQPVPDHSELVEDSSPDSEPVDLFSDDSIPDVPQKQDETVMLVKESLTETSFESMIEYENKEKLSALPPEGGKPYLESFKLSLDNTKDTLLPDEVSTLSKKEKIPLQMEELSTAVYSNDDLFISKEAQIRETETFSDSSPIEIIDEFPTLISSKTDSFSKLAREYTDLEVSHKSEIANAPDGAGSLPCTELPHDLSLKNIQPKVEEKISFSDDFSKNGSATSKVLLLPPDVSALATQAEIESIVKPKVLVKEAEKKLPSDTEKEDRSPSAIFSAELSKTSVVDLLYWRDIKKTG
notes: also called AmNg B; AP-AmNgB; not shown: alkaline phosphatase (AP), vector pcAP6
B3: AP-Nogo-66: AP fusion protein of the Nogo-66 domain (protein)
chain: RIYKGVIQAIQKSDEGHPFRAYLESEVAISEELVQKYSNSALGHVNCTIKELRRLFLVDDLVDSLK
modifications: left off: large carriers
notes: AP fusion protein of the Nogo-66 domain

Assays:
[1] = target: T1, AP-fused Amino-Nogo fragment A (a.a. 181-864) (human, UniProt Q9NQC3 181-864); experiment: AP fusion on COS-7 cells expressing mouse NgR3
T1 construct: AP put first by the name; also called AmNg A; AP-AmNgA; not shown: alkaline phosphatase (AP), vector pcAP6
T1 sequence: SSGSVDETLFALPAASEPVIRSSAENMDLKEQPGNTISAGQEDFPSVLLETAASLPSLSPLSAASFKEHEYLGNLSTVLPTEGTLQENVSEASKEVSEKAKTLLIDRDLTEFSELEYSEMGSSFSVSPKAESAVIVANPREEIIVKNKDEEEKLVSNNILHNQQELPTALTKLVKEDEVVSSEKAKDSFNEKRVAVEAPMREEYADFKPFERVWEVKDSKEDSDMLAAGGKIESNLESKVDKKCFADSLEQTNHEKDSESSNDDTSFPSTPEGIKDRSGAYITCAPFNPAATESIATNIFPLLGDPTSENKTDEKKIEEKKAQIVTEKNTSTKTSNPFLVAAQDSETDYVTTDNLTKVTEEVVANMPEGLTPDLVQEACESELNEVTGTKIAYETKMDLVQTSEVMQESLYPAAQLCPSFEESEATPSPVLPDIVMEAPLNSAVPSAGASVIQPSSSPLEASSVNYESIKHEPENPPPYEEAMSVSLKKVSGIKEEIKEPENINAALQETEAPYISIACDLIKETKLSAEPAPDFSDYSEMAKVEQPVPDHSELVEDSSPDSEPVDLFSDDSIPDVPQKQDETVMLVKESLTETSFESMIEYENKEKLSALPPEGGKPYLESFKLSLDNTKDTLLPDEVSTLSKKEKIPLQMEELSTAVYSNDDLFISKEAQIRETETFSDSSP
Method: (§1) FIG. 3B. […] Conditioned media from transfected HEK293T cells containing 20 nM of indicated AP fusion protein were applied to COS-7 cells expressing mouse NgR1, human NgR2 or mouse NgR3 and bound AP was stained. Surface expression of NgR5 was detected using anti-Myc or anti-His antibodies. AP-AmNgA: AP fusion protein of Amino-Nogo fragment A. AP-AmNgB: AP fusion protein of Amino-Nogo fragment B.

[2] = target: B1; experiment: AP fusion on COS-7 cells expressing mouse NgR3
Method: as §1

human NgR2 = target: T2, human NgR2 (Homo sapiens, UniProt Q86UN3); conditions: expressed on the surface of COS-7 cells; Barton et al. 2003; cited from earlier work
T2 construct: expressed in transfected cells; host or cells: COS-7
T2 sequence (Q86UN3 47-390): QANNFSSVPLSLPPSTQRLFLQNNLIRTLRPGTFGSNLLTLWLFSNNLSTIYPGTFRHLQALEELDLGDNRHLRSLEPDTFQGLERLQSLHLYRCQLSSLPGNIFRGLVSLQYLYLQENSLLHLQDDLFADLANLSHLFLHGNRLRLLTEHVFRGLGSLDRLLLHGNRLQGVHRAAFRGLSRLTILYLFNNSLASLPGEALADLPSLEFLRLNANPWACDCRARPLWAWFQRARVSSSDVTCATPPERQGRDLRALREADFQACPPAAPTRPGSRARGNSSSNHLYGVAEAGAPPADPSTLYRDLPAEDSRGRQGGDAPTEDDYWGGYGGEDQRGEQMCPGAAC

mouse NgR3 = target: T3, mouse NgR3 (Mus musculus, UniProt Q8K0S5); conditions: expressed on the surface of COS-7 cells; Barton et al. 2003; cited from earlier work
T3 construct: expressed in transfected cells; host or cells: COS-7
T3 sequence (Q8K0S5 25-424): B1 chain

Molecule: B1
- binding result [1]: no binding (tested: 20 nM)

Molecule: B2
- binding result [2]: no binding (tested: 20 nM)

Molecule: B3
- binding to NgR2 (human NgR2): do not bind
- binding to NgR3 (mouse NgR3): do not bind
